In this experiment the target is T1, PAPAP protein (human).
T1 construct: Identified by expression cloning; COS-1 cells transfected with the cDNA clone were stained by the AP fusion probe; also called PAPAP polypeptide; PAPAP gene product
The experiment is described as follows: in situ receptor binding assay: AP staining of COS-1 cells transfected with human brain cDNA pools, incubated with PAP-AP fusion medium. The method, then: Plasmid DNA was obtained from pools of ˜1000 colonies using the QiaPrep Spin Miniprep kit (Qiagen). These pools of DNA were then transiently transfected into COS-1 cells as follows. Two micrograms of DNA from each pool of human brain cDNAs was diluted into 200 ul of serum-free medium (DMEM medium from Gibco-BRL with no additives). The DNA was complexed to the PLUS reagent by adding 12 ul of (mixed prior to use) PLUS reagent to the DNA in serum-free medium. 200 ul of the DNA-PLUS-Lipofectamine reagent complexes was added to wells containing Cos-1 cells plated at 0.25×10⁵ cells per well in 6 well dishes (35 mm) the day prior to transfection (in complete medium containing no antibiotics). Previous to the addition of the DNA/lipofectamine/PLUS complex, the complete medium was removed from the cells and replaced with 800 ul serum-free medium. Cells were incubated at 37 degrees C. at 5% CO₂ for 3 hours; then the medium in each well was replaced with 2 ml of complete medium.
Two days after transfection, cell staining was begun. Culture medium was removed from cells in the 6 well dishes. […]

T1 sequence (chain, as listed by the source limits assumed): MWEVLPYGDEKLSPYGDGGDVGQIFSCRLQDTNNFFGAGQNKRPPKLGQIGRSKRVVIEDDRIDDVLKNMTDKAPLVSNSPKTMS

B1: g34872 peptide-alkaline phosphatase fusion protein (other)
chain: DAAQPARRARRTYEAYQPLERMWTCNYNQQKDQSCNHKEITSTKAERRSSGIIPVEEENPDFWNREAAEALGAAKKLQPAQTAAKNLIIFLGDGMGVSTVTAARILKGQKKDKLGPEIPLAMDRFPYVALSKTYNVDKHVPDSGATATAYLCGVKGNFQTIGLSAAARFNQCNTTRGNEVISVMNRAKKAGKSVGVVTTTRVQHASPAGTYAHTVNRNWYSDADVPASARQEGCQDIATQLISNMDIDVILGGGRKYMFPMGTPDPEYPDDYSQGGTRLDGKNLVQEWLAKRQGARYVWNRTELMQASLDPSVTHLMGLFEPGDMKYEIHRDSTLDPSLMEMTEAALRLLSRNPRGFFLFVEGGRIDHGHHESRAYRALTETIMFDDAIERAGQLTSEEDTLSLVTADHSHVFSFGGYPLRGSSIFGLAPGKARDRKAYTVLLYGNGPGYVLKDGARPDVTESESGSPEYRQQSAVPLDEETHAGEDVAVFARGPQAHLVHGVQEQTFIAHVMAFAACLEPYTACDLAPPAGTTDAAHPGYLEEALSLEGPEQKLISEEDLNSAVDHHHHHH
notes: Used as conditioned medium from stably transfected 293T cells; The vector has a secretion signal upstream of the insert; also called PAP-AP fusion protein; AP fusion protein
In the case of B1, the binding result is on record as “binds”.

These data come from patent US20030148389A1 (SERONO GENETICS INSTITUTE S A, published 2003).
